{"source": "patent US5786462", "key": {"[1]": {"target": "T1, HIV-1 reverse transcriptase (Human immunodeficiency virus 1) (UniProt P03366+P03366)", "assay": "filter", "details": "apparent Kd, HRT buffer 37 C"}, "[2]": {"target": "T1, HIV-1 reverse transcriptase (Human immunodeficiency virus 1)", "assay": "inhibition", "details": "Ki' printed as ≤ 3 uM; almost no inhibition at 81 nM"}, "[3]": {"system": "AMV reverse transcriptase (Avian myeloblastosis virus)", "details": "intramolecular 3' extension to end of template"}}, "data": [{"sequence": "ATCCGCCTGATTAGCGATACTNNNNNNNNNNNNNNNNNNNNNNNNNNNNNNNNNNNACTTGAGCAAAATCACCTGCAGGGG [RO degenerate ssDNA library]", "values": [{"measurement": "Kd", "setting": "[1]", "result": 1400, "unit": "nM"}, {"measurement": "Ki", "setting": "[2]", "result": "> 3000", "unit": "nM"}]}, {"sequence": "ATCCGCCTGATTAGCGATACTTACGTGAGCGTGCTGTCCCCTAAAGGTGATACGTCACTTGAGCAAAATCACCTGCAGGGG [RT26]", "values": [{"measurement": "activity", "setting": "[3]", "result": 50, "unit": "% initiation"}]}]}
